Reference: publication PMC10397247
Blank lines part the entries; values can stand above or below the binder they belong to.

How the values were obtained:
4H967-bN = molecular target: T1, 4H967-bN; assay: two-hybrid library CCNG1;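 note: natural log of median RNA to DNA barcode read ratio; higher means stronger binding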
T1 chain: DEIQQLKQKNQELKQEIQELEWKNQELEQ

4H797-bN = molecular target: T2, 4H797-bN; assay: two-hybrid library CCNG1;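 note: natural log of median RNA to DNA barcode read ratio; higher means stronger binding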
T2 chain: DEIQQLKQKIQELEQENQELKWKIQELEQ

4H908-bN = molecular target: T3, 4H908-bN; assay: two-hybrid library CCNG1;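 note: natural log of median RNA to DNA barcode read ratio; higher means stronger binding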
T3 chain: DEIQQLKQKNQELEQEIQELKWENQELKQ

4H3354-bN = molecular target: T4, 4H3354-bN; assay: two-hybrid library CCNG1;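 note: natural log of median RNA to DNA barcode read ratio; higher means stronger binding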
T4 chain: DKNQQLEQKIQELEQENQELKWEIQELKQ

4H72-bN = molecular target: T5, 4H72-bN; assay: two-hybrid library CCNG1;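 note: natural log of median RNA to DNA barcode read ratio; higher means stronger binding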
T5 chain: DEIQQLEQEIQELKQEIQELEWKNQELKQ

4H454-bN = molecular target: T6, 4H454-bN; assay: two-hybrid library CCNG1;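 note: natural log of median RNA to DNA barcode read ratio; higher means stronger binding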
T6 chain: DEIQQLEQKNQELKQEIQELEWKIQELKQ

4H754-bN = molecular target: T7, 4H754-bN; assay: two-hybrid library CCNG1
T7 chain: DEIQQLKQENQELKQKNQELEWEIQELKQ

4H953-bN = molecular target: T8, 4H953-bN; assay: two-hybrid library CCNG1
T8 chain: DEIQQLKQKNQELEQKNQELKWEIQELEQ

4H370-bN = molecular target: T9, 4H370-bN; assay: two-hybrid library CCNG1
T9 chain: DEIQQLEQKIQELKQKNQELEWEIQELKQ

4H717-bN = molecular target: T10, 4H717-bN; assay: two-hybrid library CCNG1
T10 chain: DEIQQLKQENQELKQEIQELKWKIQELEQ

4H687-bN = molecular target: T11, 4H687-bN; assay: two-hybrid library CCNG1
T11 chain: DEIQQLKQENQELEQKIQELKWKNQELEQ

4H3782-bN = molecular target: T12, 4H3782-bN; assay: two-hybrid library CCNG1
T12 chain: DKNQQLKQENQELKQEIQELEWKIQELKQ

4H338-bN = molecular target: T13, 4H338-bN; assay: two-hybrid library CCNG1
T13 chain: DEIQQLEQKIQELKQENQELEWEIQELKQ

4H3427-bN = molecular target: T14, 4H3427-bN; assay: two-hybrid library CCNG1
T14 chain: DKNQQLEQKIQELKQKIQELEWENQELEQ

4H918-bN = molecular target: T15, 4H918-bN; assay: two-hybrid library CCNG1
T15 chain: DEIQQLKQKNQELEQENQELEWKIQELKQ

4H607-bN = molecular target: T16, 4H607-bN; assay: two-hybrid library CCNG1
T16 chain: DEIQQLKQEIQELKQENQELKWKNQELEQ

4H3855-bN = molecular target: T17, 4H3855-bN; assay: two-hybrid library CCNG1
T17 chain: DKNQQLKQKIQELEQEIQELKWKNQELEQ

4H3843-bN = molecular target: T18, 4H3843-bN; assay: two-hybrid library CCNG1
T18 chain: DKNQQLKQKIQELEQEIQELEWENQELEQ

4H568-bN = molecular target: T19, 4H568-bN; assay: two-hybrid library CCNG1
T19 chain: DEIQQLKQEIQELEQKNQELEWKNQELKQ

4H4001-bN = molecular target: T20, 4H4001-bN; assay: two-hybrid library CCNG1
T20 chain: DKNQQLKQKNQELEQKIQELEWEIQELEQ

4H462-bN = molecular target: T21, 4H462-bN; assay: two-hybrid library CCNG1
T21 chain: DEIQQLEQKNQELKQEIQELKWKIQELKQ

4H3606-bN = molecular target: T22, 4H3606-bN; assay: two-hybrid library CCNG1
T22 chain: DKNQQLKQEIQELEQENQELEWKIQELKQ

4H331-bN = molecular target: T23, 4H331-bN; assay: two-hybrid library CCNG1
T23 chain: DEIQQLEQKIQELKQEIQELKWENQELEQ

4H883-bN = molecular target: T24, 4H883-bN; assay: two-hybrid library CCNG1
T24 chain: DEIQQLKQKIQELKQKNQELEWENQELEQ

APC2405-AA = molecular target: T25, APC2405-AA; assay: two-hybrid library CCmax; settings: mean of both orientations
T25 chain: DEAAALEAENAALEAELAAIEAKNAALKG

APC2237-AA = molecular target: T26, APC2237-AA; assay: two-hybrid library CCmax; settings: mean of both orientations
T26 chain: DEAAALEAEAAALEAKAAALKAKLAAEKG

APC4011-AA = molecular target: T27, APC4011-AA; assay: two-hybrid library CCmax; settings: mean of both orientations
T27 chain: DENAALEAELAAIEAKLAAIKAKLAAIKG

APC5383-AA = molecular target: T28, APC5383-AA; assay: two-hybrid library CCmax; settings: mean of both orientations
T28 chain: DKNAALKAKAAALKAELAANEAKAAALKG

APC4264-AA = molecular target: T29, APC4264-AA; assay: two-hybrid library CCmax; settings: mean of both orientations
T29 chain: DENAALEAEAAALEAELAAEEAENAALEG

APC4436-AA = molecular target: T30, APC4436-AA; assay: two-hybrid library CCmax; settings: mean of both orientations
T30 chain: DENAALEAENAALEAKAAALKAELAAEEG

APC7099-AA = molecular target: T31, APC7099-AA; assay: two-hybrid library CCmax; settings: mean of both orientations
T31 chain: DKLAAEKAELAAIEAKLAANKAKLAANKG

APC9096-AA = molecular target: T32, APC9096-AA; assay: two-hybrid library CCmax; settings: mean of both orientations
T32 chain: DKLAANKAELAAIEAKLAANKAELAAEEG

APC9319-AA = molecular target: T33, APC9319-AA; assay: two-hybrid library CCmax; settings: mean of both orientations
T33 chain: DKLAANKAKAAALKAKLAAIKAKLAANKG

APC232-AA = molecular target: T34, APC232-AA; assay: two-hybrid library CCmax; settings: mean of both orientations
T34 chain: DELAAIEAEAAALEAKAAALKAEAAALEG

APC1434-AA = molecular target: T35, APC1434-AA; assay: two-hybrid library CCmax
T35 chain: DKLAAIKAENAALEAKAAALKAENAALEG

APC6108-AA = molecular target: T36, APC6108-AA; assay: two-hybrid library CCmax; settings: mean of both orientations
T36 chain: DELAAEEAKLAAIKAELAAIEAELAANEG

APC8191-AA = molecular target: T37, APC8191-AA; assay: two-hybrid library CCmax; settings: mean of both orientations
T37 chain: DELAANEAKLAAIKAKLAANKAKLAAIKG

APC3645-AA = molecular target: T38, APC3645-AA; assay: two-hybrid library CCmax; settings: mean of both orientations
T38 chain: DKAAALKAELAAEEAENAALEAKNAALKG

APC8910-AA = molecular target: T39, APC8910-AA; assay: two-hybrid library CCmax; settings: mean of both orientations
T39 chain: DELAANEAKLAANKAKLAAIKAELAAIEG

O7-bS = molecular target: T40, O7-bS; assay: two-hybrid library CCNG1
T40 chain: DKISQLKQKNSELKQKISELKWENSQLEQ

O5-bS = molecular target: T41, O5-bS; assay: two-hybrid library CCNG1
T41 chain: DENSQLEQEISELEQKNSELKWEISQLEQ

O9-bS = molecular target: T42, O9-bS; assay: two-hybrid library CCNG1
T42 chain: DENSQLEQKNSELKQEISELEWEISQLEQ

O6-bS = molecular target: T43, O6-bS; assay: two-hybrid library CCNG1
T43 chain: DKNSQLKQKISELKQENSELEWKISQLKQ

O8-bS = molecular target: T44, O8-bS; assay: two-hybrid library CCNG1
T44 chain: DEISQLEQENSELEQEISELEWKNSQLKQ

O4-bS = molecular target: T45, O4-bS; assay: two-hybrid library CCNG1
T45 chain: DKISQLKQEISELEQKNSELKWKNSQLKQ

interaction score (4H967-bN): -0.995 | interaction score (4H797-bN): -0.866 | interaction score (4H908-bN): -1.35 | interaction score (4H3354-bN): -0.055 | interaction score (4H72-bN): 0.918 | interaction score (4H454-bN): -0.999 | interaction score (4H754-bN): -0.762 | interaction score (4H953-bN): -0.578 | interaction score (4H370-bN): 0.508 | interaction score (4H717-bN): -0.661 | interaction score (4H687-bN): -0.624 | interaction score (4H3782-bN): -0.492 | interaction score (4H338-bN): -0.434 | interaction score (4H3427-bN): 1.12 | interaction score (4H918-bN): -0.476 | interaction score (4H607-bN): -2.2 | interaction score (4H3855-bN): 1.17 | interaction score (4H3843-bN): -0.476 | interaction score (4H568-bN): -1.41 | interaction score (4H4001-bN): 0.329 | interaction score (4H462-bN): -0.381 | interaction score (4H3606-bN): -0.132 | interaction score (4H331-bN): -0.214 | interaction score (4H883-bN): -0.0918
Binder: DEIQQLEQKIQELKQEIQELKWENQELEQ [4H331-bN]

interaction score (APC2405-AA): -1.36 | interaction score (APC2237-AA): -1.66 | interaction score (APC4011-AA): -1.72 | interaction score (APC5383-AA): -1.97 | interaction score (APC4264-AA): -1.64 | interaction score (APC4436-AA): -1.61 | interaction score (APC7099-AA): -1.28 | interaction score (APC9096-AA): -1.36 | interaction score (APC9319-AA): -1.75 | interaction score (APC232-AA): -1.48 | interaction score (APC1434-AA): -1.78 | interaction score (APC6108-AA): -1.79 | interaction score (APC8191-AA): -1.74 | interaction score (APC3645-AA): -1.31 | interaction score (APC8910-AA): -1.81
Binder: DKLAAIKAENAALEAKAAALKAENAALEG [APC1434-AA]

interaction score (O7-bS): -0.221 | interaction score (O5-bS): -0.823 | interaction score (O9-bS): 0.414 | interaction score (O6-bS): 0.143 | interaction score (O8-bS): -2.55 | interaction score (O4-bS): -1.26
Binder: DKISQLKQEISELEQKNSELKWKNSQLKQ [O4-bS]
